Assay results from article PMC11724247.
pKd: −log10 of the molar value.

Assays:
[1] = target: recombinant human FcεRIα (human) (UniProt P12319); assay: SPR
[2] = target: recombinant cynomolgus FcεRIα (cynomolgus monkey (Macaca fascicularis)); assay: SPR

| Substance | pKd [1] | pKd [2] |
| --- | --- | --- |
| recombinant human IgE (antibody) | 11.08 | 9.00 |
| recombinant cynomolgus IgE Fc (Cε1-4) (domain or fragment) | 11.17 | 8.85 |
